The target in this test is ζ subunit (F420-reductase subunit) of the ACDS CODH subcomplex from Candidatus Ethanoperedens thermophilum (Candidatus Ethanoperedens thermophilum). The test can be described thus: crystal structure.

Broadly, the stoichiometry N is a count of units in the complex or per binding partner. Consider “ζ subunit (F420-reductase subunit) of the ACDS CODH subcomplex from Candidatus Ethanoperedens thermophilum (natural protein)”, for which the stoichiometry N was determined as 2.

Values taken from paper doi:10.1101/2024.01.23.576903.
